Columns and labels:
CD4-IgG2 = CD4-IgG2 (UniProt P01730); test: D-7324 capture ELISA; conditions: value read at the highest concentration, CD4-IgG2 10 µg/ml; parent: est. 2.5; read off a plot
PGT145 = test: D-7324 capture ELISA; conditions: value read at the highest antibody concentration, PGT145 10 µg/ml; parent: est. 1.3; read off a plot
VRC01 = test: D-7324 capture ELISA; conditions: value read at the highest antibody concentration, VRC01 10 µg/ml; parent: est. 2.8; read off a plot
[1] = molecular target: 1PGE-THIVC SOSIP.664 gp140 Env trimer (HIV-1 clade C); test: negative-stain EM; SEC-purified trimers at 0.01-0.03 mg/ml on carbon-coated grids, 2% uranyl formate, 2D class averages

Row | Substance | response (CD4-IgG2) | response (PGT145) | response (VRC01) | stoichiometry N [1]
1 | 1PGE-THIVC SOSIP.664 gp140 Env trimer N279E | 0.98 A450 | 1.3 A450 | 0.93 A450 | 
2 | 1PGE-THIVC SOSIP.664 gp140 Env trimer (complex) |  |  |  | 3

— article PMC8055034
